Reference: article PMC9549385

Biological target: human delta-opioid receptor (human) (UniProt P41143)

Question: For [D-Ala2, D-Leu5]-enkephalin (peptide), which Emax of ERK1/2 phosphorylation (% of SNC80 maximum, In-Cell Western) in CHO-K1-hDOPr cells, 5 min stimulation is on record?
Answer: 36 % SNC80
